From US20210015937A1 (CRESCENDO BIOLOGICS, published 2021)
Where “and” joins values, the source holds several entries; their conditions need not be identical. Identical values can stand only once. One block for each binder: values may come before it.

How the values were obtained:
[1] = molecular target: T1, recombinant human LAG-3-Fc (human, UniProt P18627 23-450); assay: switchSENSE; LAG3 and PD1 both on the surface, LAG3 channel (avidity)
T1 construct: also called human LAG-3 (R&D Systems cat no. 2319-L3); LAG3 antigen
T1 sequence: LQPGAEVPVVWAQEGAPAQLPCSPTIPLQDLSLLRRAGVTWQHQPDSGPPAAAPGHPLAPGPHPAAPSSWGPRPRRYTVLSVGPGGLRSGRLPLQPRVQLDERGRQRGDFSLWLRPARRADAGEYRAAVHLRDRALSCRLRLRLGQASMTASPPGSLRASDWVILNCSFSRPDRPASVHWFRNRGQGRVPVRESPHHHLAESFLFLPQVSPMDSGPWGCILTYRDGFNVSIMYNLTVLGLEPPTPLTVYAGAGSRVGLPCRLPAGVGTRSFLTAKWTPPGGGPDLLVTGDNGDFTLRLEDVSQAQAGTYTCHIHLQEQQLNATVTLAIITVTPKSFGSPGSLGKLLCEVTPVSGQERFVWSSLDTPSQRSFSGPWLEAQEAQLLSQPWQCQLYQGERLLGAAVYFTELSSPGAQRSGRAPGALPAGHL
Method: (§1) The antigens were covalently attached to the biosensor surface using amine-coupling method, each antigen was linked to a different nanolever, with red or green fluorescent tag. Binding of a bispecific construct was measured to individual antigens alone or where both antigens were present on the surface simultaneously.

CD4 [2] = molecular target: T2, CD4 (UniProt P01730 26-390); assay: BLI (Octet)
T2 construct: also called CD4 (R&D Biotechne 514-CD)

CD28 = CD28 (Homo sapiens (Human), UniProt P10747 19-152); assay: BLI (Octet)
CTLA4 = CTLA4 (Homo sapiens (Human), UniProt P16410 36-161); assay: BLI (Octet)
[3] = molecular target: T3, human PD-1 expressed on cells (human, UniProt Q15116 25-288); assay: cell-based or functional assay
[4] = molecular target: T1, recombinant human LAG-3-Fc; assay: switchSENSE; LAG3 and PD1 both on the surface, LAG3 channel (avidity); LAG3 and PD1 as ligand antigens, LAG3 detection channel
Method: as §1

[5] = molecular target: T1, recombinant human LAG-3-Fc; assay: switchSENSE (Dynamic Biosensors); LAG3 alone on the surface, LAG3 channel
Method: as §1

[6] = molecular target: T4, recombinant human PD-1 Fc chimera (human, UniProt Q15116 25-167); assay: switchSENSE (Dynamic Biosensors); PD1 alone on the surface, PD1 channel
T4 construct: Bought Fc chimera; also called human PD-1 (R&D systems cat no. 1086-PD); PD1 antigen
Method: as §1

[7] = molecular target: T5, Rhesus monkey LAG-3 (used as cynomolgus LAG-3) (Rhesus monkey (called cynomolgus in the …)); assay: BLI (Octet); LAG3 antigen amine-coupled to ARG2 sensors
T5 construct: extracellular domain

[8] = molecular target: T1, recombinant human LAG-3-Fc; assay: as above
[9] = molecular target: T4, recombinant human PD-1 Fc chimera; assay: BLI (Octet); PD1 antigen captured on Protein G sensors
Cynomolgus PD1 = Cynomolgus PD1 (cynomolgus, UniProt B0LAJ3 25-170); assay: as above
[10] = molecular target: human LAG-3 and human PD-1 co-expressed on the surface of cells (DiscoverX cell line) (human); assay: cell-based or functional assay
[11] = molecular target: T3, human PD-1 expressed on cells; assay: cell-based or functional assay; remark: listed apart in the source
[12] = molecular target: T6, human LAG-3 expressed on cells (human, UniProt P18627 23-525); assay: cell-based or functional assay
T6 sequence: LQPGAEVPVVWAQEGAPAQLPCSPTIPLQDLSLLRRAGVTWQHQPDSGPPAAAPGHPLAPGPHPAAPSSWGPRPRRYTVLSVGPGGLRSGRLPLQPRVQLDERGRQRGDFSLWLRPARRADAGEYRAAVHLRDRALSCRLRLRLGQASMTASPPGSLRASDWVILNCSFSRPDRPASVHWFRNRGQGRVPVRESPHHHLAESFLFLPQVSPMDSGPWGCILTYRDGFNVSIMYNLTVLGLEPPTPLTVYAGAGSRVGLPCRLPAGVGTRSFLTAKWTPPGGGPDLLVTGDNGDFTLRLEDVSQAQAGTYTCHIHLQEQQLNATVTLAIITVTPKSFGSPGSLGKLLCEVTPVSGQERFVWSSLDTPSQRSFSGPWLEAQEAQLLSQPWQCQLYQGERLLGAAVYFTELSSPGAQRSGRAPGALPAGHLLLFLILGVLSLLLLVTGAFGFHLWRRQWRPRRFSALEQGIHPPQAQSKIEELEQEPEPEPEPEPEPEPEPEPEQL

[13] = molecular target: T4, recombinant human PD-1 Fc chimera; assay: switchSENSE; LAG3 and PD1 both on the surface, PD1 channel (avidity)
Method: as §1

[14] = molecular target: T5, Rhesus monkey LAG-3 (used as cynomolgus …); assay: ELISA, coated antigen, VH at 10 µg/ml, anti-HIS HRP
Method: (§2) To screen specificity by ELISA, antigens were coated at 1-5 ug/ml and blocked with Marvel milk powder. VH were added at 10 μg/ml and incubated for 1 hour. After washing, HRP-conjugated anti-HIS antibody (Miltenyi cat no. 130-092-785) was added. TMB substrate and acidic solution were used to develop colorimetric signal.

[15] = molecular target: T7, human LAG-3 domains 1-2-Fc (human, UniProt P18627 23-261, limits assumed); assay: as above
T7 construct: Domains were identified as per Huard et al 1997 PNAS 94:5744-9; also called truncated LAG-3
T7 sequence: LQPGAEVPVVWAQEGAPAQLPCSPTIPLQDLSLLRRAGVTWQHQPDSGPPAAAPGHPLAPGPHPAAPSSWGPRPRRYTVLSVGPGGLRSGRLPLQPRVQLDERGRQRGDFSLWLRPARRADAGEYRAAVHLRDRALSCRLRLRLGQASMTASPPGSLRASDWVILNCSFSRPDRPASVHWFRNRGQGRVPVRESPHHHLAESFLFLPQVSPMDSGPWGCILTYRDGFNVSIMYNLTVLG
Method: as §2

[16] = molecular target: T1, recombinant human LAG-3-Fc; assay: as above
Method: as §2

[17] = molecular target: T5, Rhesus monkey LAG-3 (used as cynomolgus …); assay: BLI (Octet); cynomolgus LAG-3 immobilised on ARG2 sensors, 1:1 fit
Method: (§3) Binding kinetics for multi-valent and bispecific VH were also measured in real-time bio-layer interferometer based biosensor Octet (ForteBio). […] All the binding studies were performed in HBS-ET Octet kinetics buffer. Biosensors were washed in Octet kinetics buffer in between different steps. […] The contact time for each of the association steps was 150 seconds and the dissociation step was 400 seconds. […] To compare the constructs, kinetic association (kₐ) and dissociation (kd) rate constants were determined by processing and fitting the data to a 1:1 binding model using ForteBio Analysis software.

[18] = molecular target: T7, human LAG-3 domains 1-2-Fc; assay: BLI (Octet); human LAG-3 domains 1-2-Fc captured on protein G biosensors, 1:1 fit
Method: as §3

[19] = molecular target: T1, recombinant human LAG-3-Fc; assay: BLI (Octet); human LAG-3-Fc captured on protein G biosensors, 1:1 fit
Method: as §3

[20] = molecular target: T1, recombinant human LAG-3-Fc; assay: competition ELISA; LAG-3-Fc pre-incubated with VH, binding to coated alpha-synuclein
Description: (§4) The plate was blocked with 3% Marvel skimmed milk powder in PBS. […] Wash steps were done 3 times with PBS 0.05% Tween. Colour was developed using TMB and 0.5M sulphuric acid solution.

[21] = molecular target: T1, recombinant human LAG-3-Fc; assay: competition ELISA; LAG-3-Fc pre-incubated with VH, binding to coated LSECtin
Description: as §4

[22] = molecular target: T1, recombinant human LAG-3-Fc; assay: BLI (Octet); human LAG-3-Fc amine-coupled to biosensor, VH in solution, 1:1 fit
Method: Binding kinetics were measured in real-time bio-layer interferometer based biosensor Octet (ForteBio). […] All the binding studies were performed in HBS-ET Octet kinetics buffer. Biosensors were washed in Octet kinetics buffer in between different steps. A seven point, two-fold dilution series of each Humabody® VH was made with a top concentration of 1.6 μM. The contact time for each of the association steps was 150 seconds and the dissociation step was 300-400 seconds. Kinetic association (kₐ) and dissociation (kd) rate constants were determined by processing and fitting the data to a 1:1 binding model using ForteBio Analysis software.

CD4 [23] = molecular target: T2, CD4; assay: ELISA, coated antigen, anti-HIS HRP detection
Method: as §2

mouse LAG-3 = molecular target: T8, mouse LAG-3 (mouse, UniProt Q61790 24-442); assay: ELISA, coated antigen, anti-HIS HRP detection
T8 construct: The construct is not described; also called mouse LAG-3 (Sino Biological cat no 53069-M02H); Mouse LAG3 (R&D Biotechne cat 3328-L3)
T8 sequence (looked up): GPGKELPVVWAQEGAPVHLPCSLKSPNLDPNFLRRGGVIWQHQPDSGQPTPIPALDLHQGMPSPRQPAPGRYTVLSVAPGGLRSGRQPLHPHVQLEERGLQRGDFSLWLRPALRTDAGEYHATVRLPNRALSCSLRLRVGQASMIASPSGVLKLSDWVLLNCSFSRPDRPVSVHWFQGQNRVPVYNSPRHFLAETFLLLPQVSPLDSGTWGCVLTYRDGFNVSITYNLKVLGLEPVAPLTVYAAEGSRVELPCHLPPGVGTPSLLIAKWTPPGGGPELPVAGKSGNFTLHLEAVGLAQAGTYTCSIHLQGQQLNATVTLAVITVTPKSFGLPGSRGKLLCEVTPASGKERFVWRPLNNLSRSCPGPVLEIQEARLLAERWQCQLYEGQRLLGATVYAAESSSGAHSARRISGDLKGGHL
Method: as §2

[24] = molecular target: T6, human LAG-3 expressed on cells; assay: FMAT (Mirrorball) binding to CHO human LAG-3 cells, anti-His detection
Description: Plates were read in the FL2 (502 nm-537 nm) and FL5 (677-800 nm) channels on the TTP Mirrorball plate reader following excitation at 488 nm and 640 nm. Data was gated on FL5 perimeter and peak intensity and the FL2 median mean fluorescence intensity of the gated data used for determination of VH binding.

T4 sequence (Q15116 25-167 limits assumed, change not shown): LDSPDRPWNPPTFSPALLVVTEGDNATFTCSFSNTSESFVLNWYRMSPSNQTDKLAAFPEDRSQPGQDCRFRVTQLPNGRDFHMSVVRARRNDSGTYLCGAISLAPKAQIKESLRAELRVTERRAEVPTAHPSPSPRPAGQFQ
Sequence of Cynomolgus PD1 (B0LAJ3 entry or part of it limits assumed): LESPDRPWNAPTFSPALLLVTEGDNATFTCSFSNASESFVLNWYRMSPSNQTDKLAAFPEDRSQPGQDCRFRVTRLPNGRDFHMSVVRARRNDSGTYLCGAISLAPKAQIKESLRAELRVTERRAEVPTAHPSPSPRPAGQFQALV
T3 sequence (Q15116 25-288 limits assumed): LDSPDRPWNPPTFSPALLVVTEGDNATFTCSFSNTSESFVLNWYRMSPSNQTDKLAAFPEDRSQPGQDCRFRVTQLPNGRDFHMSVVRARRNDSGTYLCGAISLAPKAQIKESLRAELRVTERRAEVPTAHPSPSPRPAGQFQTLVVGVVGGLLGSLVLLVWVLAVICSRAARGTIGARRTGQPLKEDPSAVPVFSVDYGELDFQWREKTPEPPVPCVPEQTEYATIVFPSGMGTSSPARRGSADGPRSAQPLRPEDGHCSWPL
Sequence of human LAG-3 and human PD-1 co-expressed on the surface of cells (DiscoverX cell line) (human) (Q15116 25-288): as the sequence (Q15116 25-288 limits assumed) above
Sequence of CTLA4 (P16410 36-161 limits assumed): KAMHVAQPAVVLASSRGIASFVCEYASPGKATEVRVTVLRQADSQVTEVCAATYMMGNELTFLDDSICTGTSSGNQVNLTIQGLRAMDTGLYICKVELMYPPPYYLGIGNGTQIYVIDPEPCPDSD

Kd [1]: 0.0207 nM
binding result (CD4 [2]): no binding
binding result (CD28): no binding
binding result (CTLA4): no binding
potency in the PD-1:PD-L1 NFAT-luciferase reporter assay, fold lower than monoclonal antibodies [3]: > 30 fold
koff [4]: 7.51e-05 s⁻¹
kon [4]: 3.62e+06 M⁻¹ s⁻¹
Kd [5]: 1.4 nM
koff [5]: 0.000674 s⁻¹
kon [5]: 483000 M⁻¹ s⁻¹
Kd [6]: 4.4 nM
koff [6]: 0.000488 s⁻¹
kon [6]: 110000 M⁻¹ s⁻¹
Kd [7]: 1.32 nM
koff [7]: 0.000184 s⁻¹
kon [7]: 140000 M⁻¹ s⁻¹
Kd [8]: 1.42 nM
koff [8]: 0.000206 s⁻¹
kon [8]: 145000 M⁻¹ s⁻¹
Kd [9]: 2.94 nM
koff [9]: 0.000665 s⁻¹
kon [9]: 226000 M⁻¹ s⁻¹
Kd (Cynomolgus PD1): 4.36 nM
koff (Cynomolgus PD1): 0.000685 s⁻¹
kon (Cynomolgus PD1): 157000 M⁻¹ s⁻¹
EC50 (M) (n = 2), enzyme fragment complementation on LAG-3/PD-1 cells [10]: 5.5e-11 M and 7.6e-11 M
EC50 (M), NFAT-Luciferase Reporter Gene assay (PD-1:PD-L1) [11]: 4.6e-08 M
EC50 (M), NFAT-Luciferase Reporter Gene assay (LAG-3:MHCII) [12]: 5.9e-09 M
Kd [13]: 0.041 nM
koff [13]: 8.67e-05 s⁻¹
kon [13]: 2.12e+06 M⁻¹ s⁻¹
B1: VH1.2-6GS-VH1.2-6GS-VH2.92-His6 (bispecific antibody)
chain: EVQLVESGGGVVRPGGSLRLSCAASGFTFDDYGMSWVRQAPGKGLEWVSGIHWNGGSTGYADSVKGRFTISRDNAKNSLYLQMNSLRAEDTALYYCARIPREDCSSASCYTDAIDFWGQGTMVTVSSGGGGSGGGGSGGGGSGGGGSGGGGSGGGGSEVQLVESGGGVVRPGGSLRLSCAASGFTFDDYGMSWVRQAPGKGLEWVSGIHWNGGSTGYADSVKGRFTISRDNAKNSLYLQMNSLRAEDTALYYCARIPREDCSSASCYTDAIDFWGQGTMVTVSSGGGGSGGGGSGGGGSGGGGSGGGGSGGGGSEVQLVESGGGLVKPGGSLRLSCAASGFTFSDESMTWMRQAPGKGLEWVSYISSGGGVKFYADSVKGRFTISRDNAKNSLYLQMNSLRAEDTAVYYCAREAPLRLGESPHDAFDISGQGTMVTVSSAAAHHHHHH
notes: 259 is the same construct without the tag; also called 1.2-6GS-1.2-6GS-2.92; the bispecific

ELISA signal over background [14]: > 10 fold over background
ELISA signal over background [15]: > 10 fold over background
ELISA signal over background [16]: > 10 fold over background
Kd [17]: 25.6 nM
koff [17]: 0.000222 s⁻¹
kon [17]: 8650 M⁻¹ s⁻¹
Kd [18]: 67.5 nM
koff [18]: 0.0011 s⁻¹
kon [18]: 16200 M⁻¹ s⁻¹
Kd [19]: 32.6 nM
koff [19]: 0.000905 s⁻¹
kon [19]: 27800 M⁻¹ s⁻¹
IC50 [20]: 45 nM
IC50 [21]: 210 nM
Kd [22]: 31.3 nM
koff [22]: 0.00089 s⁻¹
kon [22]: 26200 M⁻¹ s⁻¹
EC50 (M), NFAT-Luciferase Reporter Gene assay (LAG-3:MHCII) [12]: > 3.3e-07 M
binding result (CD4 [23]): no binding (tested: 10 µg/ml VH)
binding result (mouse LAG-3): no binding (tested: 10 µg/ml VH)
EC50 [24]: 1.8 nM
B2: VH 1.1 (VHH)
VHH: EVQLVESGGGVVRPGGSLRLSCSASGFTFDDYGMSWVRQAPGKGLEWVSGIHWNGGNSGYADSVKGRFTISRDNAKNSLYLQMNSLRAEDTALYYCARIPREDCSSASCYTDAIDFWGPGTMVTVSS
notes: Human VH single domain antibody (Humabody) against LAG-3; also called VH single domain antibody 1.1; monovalent LAG-3 VH 1.1
